From paper PMC4465122 (EBioMedicine, 2015) come the findings set out here.

This series deals with the molecule itself. The series can be described thus: cross-linking.

In general, stoichiometry N refers to a count of units in the complex or per binding partner.

B1: recombinant human prolidase (rhPEPD) (enzyme)
chain: MAAATGPSFWLGNETLKVPLALFALNRQRLCERLRKNPAVQAGSIVVLQGGEETQRYCTDTGVLFRQESFFHWAFGVTEPGCYGVIDVDTGKSTLFVPRLPASHATWMGKIHSKEHFKEKYAVDDVQYVDEIASVLTSQKPSVLLTLRGVNTDSGSVCREASFDGISKFEVNNTILHPEIVECRVFKTDMELEVLRYTNKISSEAHREVMKAVKVGMKEYELESLFEHYCYSRGGMRHSSYTCICGSGENSAVLHYGHAGAPNDRTIQNGDMCLFDMGGEYYCFASDITCSFPANGKFTADQKAVYEAVLRSSRAVMGAMKPGVWWPDMHRLADRIHLEELAHMGILSGSVDAMVQAHLGAVFMPHGLGHFLGIDVHDVGGYPEGVERIDEPGLRSLRTARHLQPGMVLTVEPGIYFIDHLLDEALADPARASFLNREVLQRFRGFGGVRIEEDVVVTDSGIELLTCVPRTVEEIEACMAGCDKAFTPFSGPK
In the case of B1, the “stoichiometry N” value was 2.

B2: rhPEPD^G278D, enzymatically inactive mutant of recombinant human prolidase (enzyme)
chain: MAAATGPSFWLGNETLKVPLALFALNRQRLCERLRKNPAVQAGSIVVLQGGEETQRYCTDTGVLFRQESFFHWAFGVTEPGCYGVIDVDTGKSTLFVPRLPASHATWMGKIHSKEHFKEKYAVDDVQYVDEIASVLTSQKPSVLLTLRGVNTDSGSVCREASFDGISKFEVNNTILHPEIVECRVFKTDMELEVLRYTNKISSEAHREVMKAVKVGMKEYELESLFEHYCYSRGGMRHSSYTCICGSGENSAVLHYGHAGAPNDRTIQNGDMCLFDMDGEYYCFASDITCSFPANGKFTADQKAVYEAVLRSSRAVMGAMKPGVWWPDMHRLADRIHLEELAHMGILSGSVDAMVQAHLGAVFMPHGLGHFLGIDVHDVGGYPEGVERIDEPGLRSLRTARHLQPGMVLTVEPGIYFIDHLLDEALADPARASFLNREVLQRFRGFGGVRIEEDVVVTDSGIELLTCVPRTVEEIEACMAGCDKAFTPFSGPK
On to B2, for which the “stoichiometry N” value was 2.
